B1: CPEB3 Ribozyme (parent)
chain: GGGGGCCACAGCAGAAGCGUUCACGUCGCGGCCCCUGUCAGAUUCUGGUGAAUCUGCGAAUUCUGCUGU

Variants of: B1
Test: self-cleavage, relative activity (ratio to wild type); higher = more cleavage; co-transcriptional

Variant | self-cleavage
C18A U67A | 0.268
C18A U67C | 0.23
C18A U67G | 0.348
C18A U69A | 0.302
C18A U69G | 0.307
C18G | 0.188
C18G A23C | 0.187
C18G A40C | 0.152
C18G A40U | 0.167
C18G A42G | 0.229
C18G A42U | 0.137
C18G A51C | 0.159
C18G A52U | 0.0952
C18G A59G | 0.22
C18G A59U | 0.17
C18G A60C | 0.0758
C18G A60G | 0.137
C18G A60U | 0.154
C18G C22A | 0.179
C18G C22G | 0.236
C18G C24A | 0.105
C18G C27A | 0.16
C18G C27G | 0.224
C18G C29A | 0.16

Variant | self-cleavage
C18G C29U | 0.156
C18G C32A | 0.105
C18G C32G | 0.195
C18G C32U | 0.195
C18G C33A | 0.193
C18G C33G | 0.147
C18G C33U | 0.226
C18G C34A | 0.131
C18G C34G | 0.153
C18G C34U | 0.133
C18G C35G | 0.151
C18G C35U | 0.203
C18G C45A | 0.0664
C18G C45G | 0.113
C18G C45U | 0.183
C18G C54A | 0.186
C18G C57A | 0.0895
C18G C57U | 0.145
C18G C63A | 0.179
C18G C63U | 0.136
C18G C66A | 0.11
C18G G19A | 0.114
C18G G19U | 0.153
C18G G25C | 0.092

Variant | self-cleavage
C18G G25U | 0.151
C18G G28C | 0.911
C18G G28U | 0.129
C18G G30A | 0.236
C18G G30C | 0.167
C18G G30U | 0.183
C18G G31A | 0.0986
C18G G31C | 0.142
C18G G31U | 0.181
C18G G37C | 0.111
C18G G37U | 0.0757
C18G G41A | 0.113
C18G G41C | 0.0964
C18G G41U | 0.134
C18G G47A | 0.21
C18G G48A | 0.145
C18G G48C | 0.17
C18G G48U | 0.208
C18G G50A | 0.266
C18G G50U | 0.143
C18G G56U | 0.128
C18G G58C | 0.154
C18G G58U | 0.176
C18G G65A | 0.131

Variant | self-cleavage
C18G G65C | 0.141
C18G G68A | 0.403
C18G G68C | 0.21
C18G U20C | 0.0509
C18G U20G | 0.218
C18G U21C | 0.219
C18G U21G | 0.174
C18G U26A | 0.119
C18G U26C | 0.175
C18G U26G | 0.267
C18G U36A | 0.12
C18G U36C | 0.122
C18G U36G | 0.145
C18G U38C | 0.234
C18G U38G | 0.155
C18G U43A | 0.114
C18G U43C | 0.188
C18G U43G | 0.0435
C18G U44A | 0.116
C18G U46A | 0.227
C18G U46C | 0.15
C18G U49C | 0.147
C18G U49G | 0.217
C18G U53A | 0.177

Variant | self-cleavage
C18G U53C | 0.0868
C18G U53G | 0.199
C18G U55A | 0.126
C18G U55C | 0.198
C18G U61C | 0.209
C18G U61G | 0.144
C18G U62A | 0.142
C18G U62C | 0.122
C18G U64A | 0.228
C18G U64C | 0.1
C18G U64G | 0.159
C18G U67A | 0.205
C18G U67C | 0.186
C18G U69A | 0.26
C18G U69C | 0.352
C18G U69G | 0.252
C18U | 0.926
C18U A23C | 0.746
C18U A23G | 0.715
C18U A23U | 0.877
C18U A40C | 0.197
C18U A42C | 0.556
C18U A42G | 0.579
C18U A51G | 0.853

Variant | self-cleavage
C18U A51U | 0.851
C18U A52C | 0.759
C18U A52G | 0.923
C18U A52U | 0.87
C18U A59G | 0.793
C18U A60G | 0.809
C18U C22G | 0.197
C18U C22U | 0.108
C18U C24A | 0.416
C18U C24G | 0.164
C18U C27A | 0.198
C18U C27G | 0.194
C18U C27U | 0.121
C18U C29A | 0.161
C18U C29U | 0.0827
C18U C32A | 0.381
C18U C32U | 0.87
C18U C33U | 0.821
C18U C34A | 0.352
C18U C35A | 0.24
C18U C35G | 0.281
C18U C39A | 0.387
C18U C39U | 0.551
C18U C45A | 0.792

Variant | self-cleavage
C18U C54A | 0.305
C18U C54G | 0.456
C18U C54U | 0.852
C18U C57A | 0.24
C18U C57G | 0.271
C18U C63A | 0.284
C18U C63G | 0.306
C18U C63U | 0.678
C18U C66A | 0.297
C18U C66U | 0.704
C18U G19C | 0.168
C18U G19U | 0.142
C18U G25A | 0.157
C18U G25C | 0.153
C18U G25U | 0.17
C18U G28A | 0.909
C18U G30C | 0.222
C18U G30U | 0.192
C18U G31A | 0.313
C18U G31C | 0.178
C18U G31U | 0.295
C18U G37A | 0.193
C18U G37C | 0.13

Source: the RNAGym collection of RNA variant scans (doi:10.7554/elife.80360)
